Measurements published in patent US20090170766A1, “Chimeric Kunitz Domains and their Use” (BAYER HEALTHCARE AG, priority 2006, published 2009).
Changes are numbered by the printed parent chain. Where two headings read alike, the source gives them in different places. Positions of bridges follow the written chain, without caps; N, C: chain ends. No end group written: not given here.

B1: TFPI mut4 (SEQ ID NO: 5) (designed binder)
chain: MHSFCAFKAETGPCRAAHPRWWFNIFTRQCEEFIYGGCEGNQNRFESLEECKKMCTRD
B2: TFPI mut2 (SEQ ID NO: 7) (designed binder)
chain: B1 chain with E10D, T11D, H18M, P19K, W21F, W22F
B3: TFPI mut5 (SEQ ID NO: 8) (designed binder)
chain: B1 chain with E10D, T11D
B4: TFPI mut6 (SEQ ID NO: 9) (designed binder)
chain: B1 chain with E10D, T11D, R15K, A17I, H18M, P19K, W21F
B5: TFPI random (SEQ ID NO: 10) (designed binder)
chain: B1 chain with H18M, P19K, W21F, W22F
B6: TFPI mut13EA (SEQ ID NO: 18) (designed binder)
chain: EAMHSFCAFKAVTGPCKARIIRFFFNIFTRQCEEFIYGGCEGNQNRFESLEECKKMCTRD
B7: TFPI mut3EA (SEQ ID NO: 19) (designed binder)
chain: B6 chain with V12E, K17R, R19A, I20H, I21P, F23W
modifications: ends and bridges not checked; cysteine pairing not given here
B8: TFPI mut4EA (SEQ ID NO: 20) (designed binder)
chain: B6 chain with V12E, K17R, R19A, I20H, I21P, F23W, F24W
B9: TFPI mut7EA (SEQ ID NO: 25) (designed binder)
chain: B6 chain with V12Y
B10: TFPI mut8EA (SEQ ID NO: 26) (designed binder)
chain: B6 chain with V12Y, R19A
B11: TFPI mut10EA (SEQ ID NO: 28) (designed binder)
chain: B6 chain with V12Y, K17R, R19A
B12: TFPI mut11EA (SEQ ID NO: 29) (designed binder)
chain: B6 chain with K17R, R19S, I20F, I21P, F23W
B13: TFPI mut12EA (SEQ ID NO: 30) (designed binder)
chain: B6 chain with V12S
B14: TFPI mut15EA (SEQ ID NO: 31) (designed binder)
chain: B6 chain with K17R, R19A, I20M, I21K, F24W
B15: TFPI mut3 (SEQ ID NO: 4) (designed binder)
chain: B1 chain with W22F
B16: human tissue factor pathway inhibitor 1 Kunitz domain 1 (hTFPI D1) (other)
chain: MHSFCAFKADDGPCKAIMKRFFFNIFTRQCEEFIYGGCEGNQNRFESLEECKKMCTRD

Tests used:
[1] = molecular target: T1, human plasmin (Homo sapiens, UniProt P00747); assay: Inhibition of plasmin, fluorogenic substrate assay; type: biochemical
T1 construct: enzymatic activities of trypsin, plasmin and plasma kallikrein; purchased Enzyme Research Hplas
T1 sequence (P00747 581-810 limits assumed): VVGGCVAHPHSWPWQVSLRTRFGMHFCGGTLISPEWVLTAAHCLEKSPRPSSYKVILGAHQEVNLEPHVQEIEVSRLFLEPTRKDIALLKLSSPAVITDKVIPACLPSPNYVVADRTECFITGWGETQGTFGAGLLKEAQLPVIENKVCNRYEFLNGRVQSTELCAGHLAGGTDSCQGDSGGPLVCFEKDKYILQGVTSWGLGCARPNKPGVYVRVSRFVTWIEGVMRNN
T1 sequence (P00747 97-580 partner limits assumed): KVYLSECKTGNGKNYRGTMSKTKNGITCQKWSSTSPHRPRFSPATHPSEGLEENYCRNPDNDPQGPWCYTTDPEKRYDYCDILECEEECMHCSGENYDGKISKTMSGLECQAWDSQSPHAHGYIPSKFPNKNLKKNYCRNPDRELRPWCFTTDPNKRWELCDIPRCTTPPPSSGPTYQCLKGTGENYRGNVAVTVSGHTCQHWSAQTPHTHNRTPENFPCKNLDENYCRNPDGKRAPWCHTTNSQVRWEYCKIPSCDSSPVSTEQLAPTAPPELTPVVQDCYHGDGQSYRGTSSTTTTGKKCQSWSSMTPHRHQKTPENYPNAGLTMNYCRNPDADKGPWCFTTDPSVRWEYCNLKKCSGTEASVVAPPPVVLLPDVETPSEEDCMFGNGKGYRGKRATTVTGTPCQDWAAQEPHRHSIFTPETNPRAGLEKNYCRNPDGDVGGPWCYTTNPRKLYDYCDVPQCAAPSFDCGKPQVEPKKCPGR
Description: (§1) The inhibitory potency of TFPI mut3 on the enzymatic activities of trypsin, plasmin and plasma kallikrein were determined with the aid of fluorogenic substrates in biochemical assays in white 384-well microtitre plates. The assay buffer was composed of 50 mM Tris/Cl, pH 7.4, 100 mM NaCl, 5 mM CaCl2, 0.08% (w/v) BSA. The assay conditions were specifically as follows:
(§2) 10 μl of a serial dilution of TFPI mut3EA were introduced into each well and preincubated with 20 μl of enzyme at RT for 5 min. The reaction was then started by adding 20 μl of substrate to each. The measurement took place after 60-90 min in a Tecan reader with an excitation wavelength of 360 nm and an emission wavelength of 465 nm. Dose-activity plots and half-maximum inhibitory constants (IC50 values) were determined using GraphPad Prism software (version 4.02).

[2] = molecular target: T2, human plasma kallikrein (Homo sapiens, UniProt P03952); assay: Inhibition of plasma kallikrein, fluorogenic substrate assay; type: biochemical
T2 construct: purchased Calbiochem 420307
T2 sequence (P03952 391-638 limits assumed): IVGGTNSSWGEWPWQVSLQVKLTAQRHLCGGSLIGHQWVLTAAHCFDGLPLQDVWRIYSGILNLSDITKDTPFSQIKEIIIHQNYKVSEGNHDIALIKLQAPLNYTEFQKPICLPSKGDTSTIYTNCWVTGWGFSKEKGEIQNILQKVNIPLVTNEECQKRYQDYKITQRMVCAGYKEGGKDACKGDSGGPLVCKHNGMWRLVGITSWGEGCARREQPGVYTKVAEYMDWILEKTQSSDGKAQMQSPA
T2 sequence (P03952 20-390 partner limits assumed): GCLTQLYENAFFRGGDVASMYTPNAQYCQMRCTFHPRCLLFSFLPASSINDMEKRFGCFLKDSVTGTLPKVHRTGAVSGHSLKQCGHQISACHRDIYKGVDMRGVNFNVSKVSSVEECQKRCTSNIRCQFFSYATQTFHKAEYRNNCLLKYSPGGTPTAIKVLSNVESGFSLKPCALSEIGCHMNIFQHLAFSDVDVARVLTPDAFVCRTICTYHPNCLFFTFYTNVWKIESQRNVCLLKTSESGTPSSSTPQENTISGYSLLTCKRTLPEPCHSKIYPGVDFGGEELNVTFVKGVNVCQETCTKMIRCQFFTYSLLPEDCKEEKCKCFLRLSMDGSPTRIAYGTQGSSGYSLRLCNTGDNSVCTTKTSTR
Description: as §1, §2

[3] = system: human trypsin; assay: Inhibition of trypsin, fluorogenic substrate assay; type: biochemical
Description: as §1, §2

[4] = molecular target: T3, human trypsin (human, UniProt P07477)
[5] = molecular target: T4, human plasma kallikrein (human, UniProt P03952)
[6] = molecular target: T5, human plasmin (human, UniProt P00747)
Target sequence in this assay (P00747 97-810 limits assumed): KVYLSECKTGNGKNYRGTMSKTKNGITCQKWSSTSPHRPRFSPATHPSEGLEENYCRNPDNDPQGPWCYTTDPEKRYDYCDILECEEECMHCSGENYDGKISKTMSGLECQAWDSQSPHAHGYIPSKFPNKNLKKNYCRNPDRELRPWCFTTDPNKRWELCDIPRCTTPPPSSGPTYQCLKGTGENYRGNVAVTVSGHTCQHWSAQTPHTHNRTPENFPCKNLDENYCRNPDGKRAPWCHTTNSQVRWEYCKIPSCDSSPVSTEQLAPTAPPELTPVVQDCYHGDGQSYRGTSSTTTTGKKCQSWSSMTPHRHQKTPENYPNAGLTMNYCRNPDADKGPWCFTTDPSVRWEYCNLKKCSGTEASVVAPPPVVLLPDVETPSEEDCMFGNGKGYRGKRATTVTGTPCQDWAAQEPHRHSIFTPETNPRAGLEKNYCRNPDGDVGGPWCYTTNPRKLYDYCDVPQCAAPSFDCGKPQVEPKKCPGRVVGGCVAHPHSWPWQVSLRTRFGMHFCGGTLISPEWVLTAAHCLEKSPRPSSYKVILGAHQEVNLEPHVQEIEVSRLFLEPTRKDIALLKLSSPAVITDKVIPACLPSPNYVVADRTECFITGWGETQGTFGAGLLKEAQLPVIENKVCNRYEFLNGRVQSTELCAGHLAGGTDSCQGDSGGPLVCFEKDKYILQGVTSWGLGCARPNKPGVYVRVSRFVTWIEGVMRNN

[7] = molecular target: T3, human trypsin; assay: cell-based or functional assay
[8] = molecular target: T4, human plasma kallikrein; assay: cell-based or functional assay
[9] = molecular target: T5, human plasmin; assay: cell-based or functional assay

Molecule	IC50 [1] [nM]	IC50 [2] [nM]	Trypsin IC50 [nM], inhibition of enzymatic activity, fluorogenic substrate [4] [nM]	Plasma kallikrein IC50 [nM], inhibition of enzymatic activity, fluorogenic substrate [5] [nM]	Plasmin IC50 [nM], inhibition of enzymatic activity, fluorogenic substrate [6] [nM]	further results
MHSFCAFKADDGPCKAIMKRFWFNIFTRQCEEFIYGGCEGNQNRFESLEECKKMCTRD (disulfide 5-55, 14-38, 30-51) [SEQ ID NO: 9]	497	> 10				
EAMHSFCAFKAYTGPCKARIIRFFFNIFTRQCEEFIYGGCEGNQNRFESLEECKKMCTRD (disulfide 7-57, 16-40, 32-53) [SEQ ID NO: 25]	52	1.19				
EAMHSFCAFKAVTGPCRASFPRWFFNIFTRQCEEFIYGGCEGNQNRFESLEECKKMCTRD (disulfide 7-57, 16-40, 32-53) [SEQ ID NO: 29]	19	16				
EAMHSFCAFKAYTGPCRAAIIRFFFNIFTRQCEEFIYGGCEGNQNRFESLEECKKMCTRD (disulfide 7-57, 16-40, 32-53) [SEQ ID NO: 28]	77	8				
EAMHSFCAFKAETGPCRAAHPRWFFNIFTRQCEEFIYGGCEGNQNRFESLEECKKMCTRD (disulfide 7-57, 16-40, 32-53) [SEQ ID NO: 19]	30	3				
EAMHSFCAFKAVTGPCKARIIRFFFNIFTRQCEEFIYGGCEGNQNRFESLEECKKMCTRD (disulfide 7-57, 16-40, 32-53) [SEQ ID NO: 18]	47	1.48				
MHSFCAFKADDGPCKAIMKRFFFNIFTRQCEEFIYGGCEGNQNRFESLEECKKMCTRD (disulfide 5-55, 14-38, 30-51) [hTFPI D1, reference compound]		> 10				
SEQ ID NO: 5: hTFPI D1 variant: MSSFCAFKAETGPCRAAHPRWWFNIFTRQCEEFIYGGCEGNQNRFESLEECKKMCTRD						IC50 ([1]; human plasmin, read-out: Plasmin IC50): 24 nM; IC50 ([2]; human plasma kallikrein, read-out: Plasma kallikrein IC50): 3 nM; IC50 [3]: 8 nM
MHSFCAFKAETGPCRAAMKRFFFNIFTRQCEEFIYGGCEGNQNRFESLEECKKMCTRD (disulfide 5-55, 14-38, 30-51) [SEQ ID NO: 10]	27	48				
EAMHSFCAFKASTGPCKARIIRFFFNIFTRQCEEFIYGGCEGNQNRFESLEECKKMCTRD (disulfide 7-57, 16-40, 32-53) [SEQ ID NO: 30]	56	2.34				
MHSFCAFKADDGPCRAAHPRWWFNIFTRQCEEFIYGGCEGNQNRFESLEECKKMCTRD (disulfide 5-55, 14-38, 30-51) [SEQ ID NO: 8]	267	1				
MHSFCAFKAETGPCRAAHPRWFFNIFTRQCEEFIYGGCEGNQNRFESLEECKKMCTRD (disulfide 5-55, 14-38, 30-51) [SEQ ID NO: 4]	32	3				
EAMHSFCAFKAVTGPCRAAMKRFWFNIFTRQCEEFIYGGCEGNQNRFESLEECKKMCTRD (disulfide 7-57, 16-40, 32-53) [SEQ ID NO: 31]	48	75				
EAMHSFCAFKAYTGPCKAAIIRFFFNIFTRQCEEFIYGGCEGNQNRFESLEECKKMCTRD (disulfide 7-57, 16-40, 32-53) [SEQ ID NO: 26]	83	194				
MHSFCAFKADDGPCRAAMKRFFFNIFTRQCEEFIYGGCEGNQNRFESLEECKKMCTRD (disulfide 5-55, 14-38, 30-51) [SEQ ID NO: 7]	195	11				
EAMHSFCAFKAETGPCRAAHPRWWFNIFTRQCEEFIYGGCEGNQNRFESLEECKKMCTRD (disulfide 7-57, 16-40, 32-53) [SEQ ID NO: 20]	24	2				

Molecule	IC50 [1] [nM]	IC50 [2] [nM]	Trypsin IC50 [nM], inhibition of enzymatic activity, fluorogenic substrate [4] [nM]	Plasma kallikrein IC50 [nM], inhibition of enzymatic activity, fluorogenic substrate [5] [nM]	Plasmin IC50 [nM], inhibition of enzymatic activity, fluorogenic substrate [6] [nM]	further results
B1			8	3	24	
B2			19	11	195	
B3			266	1	267	
B4			36	> 10000	497	
B5			6	48	27	
B6			20	1480	47	
B7			5	3	30	
B8			7	2	24	
B9			38	1190	52	
B10			64	194	83	
B11			17	8	77	
B12			4	16	19	
B13			21	2340	56	
B14			1	75	48	
B15			5	3	32	
B16						Trypsin IC50 [nM], inhibition of enzymatic activity, fluorogenic substrate [7]: 44 nM; Plasma kallikrein IC50 [nM], inhibition of enzymatic activity, fluorogenic substrate [8]: > 10000 nM; Plasmin IC50 [nM], inhibition of enzymatic activity, fluorogenic substrate [9]: 559 nM
